The results in this text go back to patent publication US20230071765A1, “COMPOSITIONS HAVING THIOREDOXIN ACTIVITY AND RELATED METHODS” (ORPRO THERAPEUTICS, INC., priority 2020, published 2023).

Experiment [1] concerns 4% HBE mucus from CF donors. Put plainly: rheology of 4% solids CF HBE mucus (G′, G″). The class given is biochemical, human. Conditions: 1 hr at 37° C. From the text: Mucus Preparation: Aseptic mucus was harvested from over 100 individual HBE cultures from 20 different CF donors and prepared to four weight-percent (4%) solids, a concentration that typifies chronic obstructive pulmonary disease (COPD) and mild CF (Hill, D. B. et al., 2014, A biophysical basis for mucus solids concentration as a candidate biomarker for airways disease, PloS one 9, e87681; Anderson, W. H. et al., 2015, The relationship of mucus concentration (hydration) to mucus osmotic pressure and transport in chronic bronchitis., Am J Resp Crit Care Med 192: 182-90). Rheology: HBE cell culture mucus was treated with DTT (1 mM) and several concentrations of ORP100S (0.01, 0.1, and 1.0 mM) for 1 hr at 37° C. following previously established methods (Hill, D. B., and Button, B., 2012, Establishment of respiratory air-liquid interface cultures and their use in studying mucin production, secretion, and function. In Mucins: Methods and Protocols, D. J. Thornton, ed., pp. 245-58; Youngren-Ortiz, S. et al., 2017, Development of optimized inhalable Gemcitabine-loaded gelatin nanocarriers for lung cancer, J Aerosol Med Pulm Drug Delivery 30:299-321; Seagrave, J., et al., 2012, Effects of guaifenesin, N-acetylcysteine, and ambroxol on MUC5AC and mucociliary transport in primary differentiated human tracheal-bronchial cells, Respir Res 13: 98). Concentration and time course assays were performed using a TA Instruments DHR3 rheometer to assess the bulk, macroscopic biophysical effects of test article and controls on HBE mucus properties. Briefly, the linear regime of a 1 Hz amplitude (stress) sweep was identified for each treatment condition. […] Creep recovery experiments were performed in which a known stress (between 0.05 and ˜100 Pa) was applied to treated or control mucus for 10 seconds, and the rheological recovery of the fluid was recorded for an additional 50 seconds. […] From the measured parameters the viscosity and elasticity of the fluid were determined as a function of applied stress. Frequency sweeps were performed at both constant stress and strains and used to determine the baseline physical properties of mucus and its elastic and viscous components (G′ and G″, respectively). Mucin molecular weight determination: Molecular weight reduction following test article treatment was determined using a combination of gel-permeation chromatography with multi-angle laser light scattering on a Wyatt Heleos MALLS system. MALLS is a rapid and accurate means of determining molecular size and mass of high MW biomolecules in a non-destructive manner without requiring the use of relative standards. Briefly, 4% HBE treated samples were diluted 100-fold in 0.9% NaCl with 10 mM EDTA and 0.01% sodium azide. 0.2 mL of diluted sample was eluted through a Sepharose CL2B column to separate high MW mucins from other mucus proteins, and the mucin fraction was introduced into the MALLS system. Mucin MW was determined by fitting a Berry model to light scattering from 11 different angles using Wyatt Astra software.
FIGS. 5, A and B (top): Reduction in Elastic (G′) and Viscous (G″) moduli of 4% solids dry weight mucus reduced with DTT (1 mM) and ORP100S (0.01, 0.1, and 1.0 mM concentrations) for 1 hr at 37° C. […] All data were collected by examining frequency sweeps of mucus performed in the linear regime and analyzed at 1 rad/s on a TA DHR3 rheometer.

Experiment [2] relates to primary HBE cells from healthy non-CF donors. Put plainly: μOCT of MCT rate and CBF in non-CF primary HBE cells. The class given is cell-based, human. The source says:
Primary human bronchial epithelial (HBE) cells were derived from lung explants from healthy failed donors and CF patients homozygous for F508del CFTR. […]
One-micron resolution spectral domain μOCT was used to obtain measurements of mucociliary transport (MCT) rate and ciliary beat frequency (CBF) in HBE monolayers and of MCT rate of sputum ex vivo. This first-in-kind, high-speed (40 frames per second, 512 lines per frame) microscopic reflectance imaging modality enables simultaneous anatomic imaging in cell cultures and intact tissues that readily distinguishes the properties of CF compared to normal epithelia (Liu L, Chu K K, Houser G H, Diephuis B J, Li Y, Wilsterman E J, Shastry S, Dierksen G, Birket S E, Mazur M, et al., 2013, Method for quantitative study of airway functional microanatomy using micro-optical coherence tomography, PLoS One 8(1):e54473; Tuggle K L, Birket S E, Cui X, Hong J, Warren J, Reid L, Chambers A, Ji D, Gamber K, Chu K K, et al., 2014, Characterization of defects in ion transport and tissue development in Cystic Fibrosis Transmembrane Conductance Regulator (CFTR)-knockout rats. […] Images were captured, and MCT rate and CBF calculated, as described in the preceding references.

B1: ORP100S: thioredoxin with monothiol active site, Cys35 and non-active Cys 62, 69 and 73 substituted with serine (SEQ ID NO:29) (protein)
chain: MVKQIESKTAFQEALDAAGDKLVVVDFSATWCGPSKMIKPFFHSLSEKYSNVIFLEVDVDDSQDVASESEVKSMPTFQFFKKGQKVGEFSGANKEKLEATINELV
modifications: synthetic peptide motif
As to B1, in experiment [1] (10 μM), the “reduction in elastic modulus G′” value is reported as “significant reduction in G′ was not apparent” and the “reduction in viscous modulus G″” value is around 2 fold. In experiment [1] (100 μM), the “reduction in viscous modulus G″” value was “reduced by a similar amount as observed with 10 μM”. Also, the “elastic modulus G′” value in experiment [1] (100 μM, baseline value 0.28 Pa) was 0.19 Pa. Moreover, in experiment [1] (1 mM), the “reduction in G′, factor” value is around 3 and the “reduction in G″, factor” value is on record as around 3. Besides, the CBF result in experiment [2] (3 hrs post treatment) is recorded as “no meaningful differences”. In addition, in experiment [2] (3 hrs post-treatment, ORP100S 1-3 mM, DTT 1.6 mM, PBS 0.05±0.007, mean±SE), the MCT rate is 2.18±0.3 mm/min.
